Experimental data taken from the RNAGym collection of RNA variant scans (doi:10.1073/pnas.2313332121).

B1: TPR t1 (parent)
chain: GACCAAUCUGCCCUCAGAGCUCGAGAACAUCUUCGGAUGCAGAGGAGGCAGGCUUCGGUGGCGCGAUAGCGCCAACGUCCUCAACCUCCAAUGCAUCCCACCACAUGAUGAUGCCUGAAGAGCCUUGGUUUUUUG

Variants of: B1
Assay: polymerase ribozyme fitness, log enrichment relative to wild type (log ratio); higher = more active; in vitro selection for triplet polymerase activity
Summary of the method: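 Frozen incubation at −7 °C formed the core of a single, triplicate in vitro selection round applied to PCR-built, transcribed mutant libraries of each subunit of a heterodimeric triplet polymerase ribozyme. Extended constructs were gel-excised, captured with streptavidin beads and amplified by RT-PCR, and input and output libraries were Illumina-sequenced with a filter of ≥10 input reads and ≥1 read per output. Fitness is the logarithm of genotype enrichment relative to wild-type enrichment, with inverse-variance-weighted replicate averaging, and the logarithm is base 2.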

Variant	polymerase ribozyme fitness (log ratio)
A41U G57A G77A	-1.68
G42A G45U C82U C89U A90U A118G	-1.67
G42A C72G C89G	-3.84
G42C G48A C72G G120A	-1.67
A41G G63A A75G C85A U133A	-3.04
C40U C98A	-5
A41U C70U A84U U116C C124U U130A	-5.57
G42U C49A G77A C123G G135U	-1.82
A43C U125G	-2.24
A41C G42C U106A	-2.3
G42C G63A	-3.47
A41U C89U	-1.32
C40U G48A C53A G113C	-2.73
G42U G47A	-1.67
G42C A43C C115A	-1.55
A43G A84U	-1.9
A41C G48A G60U	-1.76
A41U	-1.14
A41C	-0.956
A41G	-0.0621
G42C G69C C86A G117C	-6.61
G42A G71U	-2.41
G42C G60C G77C U78A U130G G135C	-3.55
G42A G128C	-4.63

Variant	polymerase ribozyme fitness (log ratio)
A41U C73G A90C C114U G128A	-5.13
A41C G69U U92C	-0.226
G42U G45C C76U	-2.43
A41U A43U G69C G77C G93A C124G U131A	-1.81
A41C G48C U78G A111G	-1.93
G42C G117C	-4.02
G42A G117A	-2.65
A41U G45C G60A C62U	-2.39
G42A A50U C101U	-4.32
G42U A74C G117U	-4.16
G42U C102A	-5.37
G42U C56U C86U	-1.14
G42U U59A C62G C88G A90U C98U	-7.74
A43G C82G U87C G93U	-6.73
G42C G127U	-2.05
A43C C62U A84G	-5.86
G42C G93A C97U C115U	-5.15
A41U A105C	-5.02
A41G G47U G120A	-3.73
G42U U78C C88A U92A G120A	-1.83
A41U G71C	-3.84
A41U G61A	-1.07
A43C C82A	-2.48
G42U G61U U92A C94A	-3.57

Variant	polymerase ribozyme fitness (log ratio)
A43G C101U	-1.47
A41C G63C	-2.4
C40U U55C C72U U96C A100C A119U G127U	-4.37
G42U G47C C102A U112G G120U	-6.76
G42A A91C C123U U131A	-1.71
A43C C101G A121U	-2.62
G42A G44U C70U C76U	-4.28
G42U C123A	-1.18
G42U G57C C104U U125G	-1.31
C40U G63U	-1.68
C40U G63A	-1.95
A43C U54A	-2.54
C40U G52U U96G A105U G120A G128C U131G	-6.51
A43G C73U C79A U96G A118U	-4.39
C40U C123U	0.0584
C40U C123A	0.43
G42U G61C	-3.59
A41U C53U C73A G120U	-2.14
G42A A108G A121G	-2.74
G42C A46U	-2.24
C40U G45U G127C	-3.96
A41G G48A	-1.31
G42A G48C C56G C86U C101G	-4.3
A41C G113C	-2.86

Variant	polymerase ribozyme fitness (log ratio)
A43G C85G	-2.89
A41C G61U G93C	-1.3
G42A U81A	-4.25
G42A G60U G69U	-6.05
A41C A46C C114U U131C	-3.66
A43C G71U C88A C123U	-3.41
A41C G117U C123A C124G	-3.97
C40U G135U	-1.59
G42C G44C U81C G120A	-2.45
C40U G52C G117C	-6.09
A43C U112G U126G G128U	-3.02
A41C G51C	-6.13
A41C C76U C89U A111C	-1.22
G42A C64U C115A A119U	-3.76
A41U C64U U87C U106C C123A	-1.38
G42U G60A	-2.16
A41C G48A G51U C80A C99G C115A U116G	-6.22
G42A U78G U87C C114U	-2.18
A41G A83U	-0.499
A43C G63A	-4.15
A41U G52A U59C A108G C114G U125G	-5.99
A43C G61A C101G	-4.23
A41C C49A C72U	-1.51
G42C G71U	-2.39

Variant	polymerase ribozyme fitness (log ratio)
A41C G63C G77U A91G U96G A108G U112G	-6.24
G42C C64A	-7.59
A41U G110U U125A	-4.14
A41U G65U	-6
G42U G45C A50G C82U A121G	0.685
A41C G63C A105G	-5.05
A41U G63U	-2.33
A43C C64U	-1.64
G42U G47U C123G	-1.61
A41U C70A U78G C123U	-3.32
G42U G52C U55A	-2.16
G42U C56U C72U C85G G110U	-5.53
A41C C80U C115U	-3.59
A41U G69C	-4.05
G42U C73U G117A	-3.05
A41U U78C A121G U131G	-0.28
A41G A111C	-0.47
C40U G113U	-2.53
G42U G52U A105C	-6.66
G42C A43C G71A U81A G120U	-6.28
G42U C56A	-3.39
A41U G60U	-1.91
A43G C62U C73U A84C U92A A118U U132C G135C	-2.69
C40U G52U	-1.14

Variant	polymerase ribozyme fitness (log ratio)
A43C U55G G61C C79U C97U U116G	-5.31
A43C G57U G77U	-2.72
G42C	-1.3
G42A	-1.69
G42U	-1.31
A43C G61C	-5.34
A43C G61U	-2.24
A41U U96G	-2.51
G42A A111G G113C A121C	-0.948
A41C C70A A118U	-2.8
G42A G60A	-2.03
G42A C79G G113A	-4.19
A41U C53G C62G A84U U112A	-4.47
G42A C70A C88G	-6.71
A43G C72A	-1.13
G42U U78C C94G A100C	-4.78
A41G C49G G58U C79A	-6.14
A41C G135U	-1.68
A41G G71C U116G	-3.99
A41C G77C C82U	-1.51
A41U C124G U129A	-0.389
A41C C72G	-1.5
A41U G60U U78A A95G U126A	-4.53
A43C G44U G113A	-3.01

Variant	polymerase ribozyme fitness (log ratio)
A43C G51U C82G A121U	-6.24
A43G C56G C82A A84C C114U	-3.15
G42C A46U G60C	-2.77
A41C G71U C98U C114A	-5.3
A41C C70G U78C	-5.64
A43C G45U	-3.71
G42A A43C	-2.41
A43C G48C C72G C102G	-7.62
A43C A46C C62U U87A C101U	-2.85
A43G C62U C72A G113C	-2.93
G42U G110U	-3.71
A41U G42C A95C	-4.1
A41U G77A U116C U129C	-3.98
C40U G52A G60U A91U U109A	-6.64
A41C G107A	-5.61
A43C C114U G122A	-3.24
A43G C56U	-1.77
A41G G69C	-1.9
C40U G71A U81C A95U	-3
G42C G58A G120U	-1.82
G42C A91G U112A	-0.613
C40U C73U A75C	-0.514
A41G G113A C124A	-0.366
